Test results as given in PMC8961534, “Interaction with the Assembly Chaperone Ump1 Promotes Incorporation of the β7 Subunit into Half-Proteasome Precursor Complexes Driving Their Dimerization” (Biomolecules, 2022).

T1: β7-∆CTE (β7 without C-terminal extension), untagged (S. cerevisiae, UniProt P30657 1-247)
T1 construct: β7/Pre4, S. cerevisiae, C-terminal extension (CTE, the last 19 residues) deleted; propeptide present; source: E. coli, purified
T1 sequence (looked up): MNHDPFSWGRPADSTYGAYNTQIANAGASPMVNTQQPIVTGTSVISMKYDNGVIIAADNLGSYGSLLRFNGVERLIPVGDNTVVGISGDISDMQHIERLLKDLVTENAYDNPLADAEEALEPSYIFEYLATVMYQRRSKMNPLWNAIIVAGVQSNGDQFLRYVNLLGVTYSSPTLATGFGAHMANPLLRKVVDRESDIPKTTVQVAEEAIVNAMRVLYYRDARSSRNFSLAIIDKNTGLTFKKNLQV


Columns and labels:
[1] = target: ^17–148Ump1-6His (S. cerevisiae) (UniProt P38293); assay: fluorescence microscopy-based on-bead binding assay; Ump1-6His or ^17–148Ump1-6His from E. coli extracts bound to Ni-NTA beads and washed (20 mM imidazole); extracts with mNeonGreen fusion proteins, adjusted by fluorescence, added 1 h, 4 °C; beads imaged, quantified with Fiji (n = 5), empty vector background subtracted
[2] = target: T1, β7-∆CTE (β7 without C-terminal …); assay: pull-down; native extracts of E. coli expressing Ump1-6His incubated with Ni-NTA resin, washed, then incubated with purified untagged β7 versions; elution with imidazole, anti-β7 and anti-Ump1 Western blotting, LI-COR quantification (n = 3); details: both partners purified

full-length β7 (^1–266β7) fused to mNeonGreen and 2HA, sequence (P30657 whole entry, the tested form may be a part): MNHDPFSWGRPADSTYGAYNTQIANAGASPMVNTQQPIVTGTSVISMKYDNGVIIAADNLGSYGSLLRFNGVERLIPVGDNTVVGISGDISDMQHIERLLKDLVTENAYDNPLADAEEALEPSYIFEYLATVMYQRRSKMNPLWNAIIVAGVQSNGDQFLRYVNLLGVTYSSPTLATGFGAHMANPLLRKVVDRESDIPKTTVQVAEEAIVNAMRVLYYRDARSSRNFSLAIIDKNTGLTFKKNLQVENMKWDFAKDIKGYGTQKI

Row | reduction in binding efficiency against full-length Ump1 [1] | binding result [2] | Molecule
1 | 50% |  | full-length β7 (^1–266β7) fused to mNeonGreen and 2HA (from UniProt P30657 1-266) (natural protein)
2 |  | binds | full-length Ump1-6His (natural protein, S. cerevisiae, UniProt P38293 1-148, looked up, source: E. coli; not shown: 6His, C-terminal, kept) MNIVPQDTFKSQVSTDQDKSVLSSAVPSLPDTLRQQEGGAVPLSTQLNDRHPLESTLKNWETTQRQRQMEQYRQIFGIAEPMKRTMEMEIVNRTDFNPLSTNGSIHRDILLNKECSIDWEDVYPGTGLQASTMVGDDVHSKIEKQLGI
